These results are taken from PMC8334859, “MIR156-Targeted SPL9 Is Phosphorylated by SnRK2s and Interacts With ABI5 to Enhance ABA Responses in Arabidopsis” (Frontiers in Plant Science, 2021).

The target of assay [1] is T1, ABI5-GST (Arabidopsis thaliana, UniProt Q9SJN0 1-442).
T1 construct: ABI5, Arabidopsis thaliana, At2g36270, full-length CDS in pGEX4T-1; printed both as ABI5-GST and as GST-ABI5; also called GST-ABI5; source: Escherichia coli transetta
T1 sequence (looked up): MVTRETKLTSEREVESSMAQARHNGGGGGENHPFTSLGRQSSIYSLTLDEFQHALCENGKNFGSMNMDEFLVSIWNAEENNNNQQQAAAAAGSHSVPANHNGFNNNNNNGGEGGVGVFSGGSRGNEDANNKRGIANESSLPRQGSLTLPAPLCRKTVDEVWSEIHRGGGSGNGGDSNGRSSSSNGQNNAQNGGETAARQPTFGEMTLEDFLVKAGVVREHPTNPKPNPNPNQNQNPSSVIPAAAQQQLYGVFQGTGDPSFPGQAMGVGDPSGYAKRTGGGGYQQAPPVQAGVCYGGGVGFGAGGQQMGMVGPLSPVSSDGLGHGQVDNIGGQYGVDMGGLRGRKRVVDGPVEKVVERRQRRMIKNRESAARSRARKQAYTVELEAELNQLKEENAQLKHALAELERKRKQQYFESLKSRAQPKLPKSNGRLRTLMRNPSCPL
Nature of the assay: pull-down; in vitro; SPL3 and ABI5 fusion proteins incubated with amylose resin overnight in column buffer (20 mM Tris-HCl pH 7.5, 200 mM NaCl, 1 mM PMSF, 1 mM DTT); blots with anti-GST and anti-MBP. The note with it: both partners purified.

Assay [2] has as its target T1, ABI5-GST. Nature of the assay: pull-down; in vitro; fusion proteins incubated with glutathione resin overnight in column buffer (20 mM Tris-HCl pH 7.5, 200 mM NaCl, 1 mM PMSF, 1 mM DTT); blots with anti-GST and anti-MBP. The note with it: both partners purified.

B1: MBP-SPL3 (natural protein, Arabidopsis thaliana, UniProt P93015 1-131, looked up)
chain: MSMRRSKAEGKRSLRELSEEEEEEEETEDEDTFEEEEALEKKQKGKATSSSGVCQVESCTADMSKAKQYHKRHKVCQFHAKAPHVRISGLHQRFCQQCSRFHALSEFDEAKRSCRRRLAGHNERRRKSTTD
notes: SPL3, Arabidopsis thaliana, At2g33810, full-length CDS in pMAL-c2X; source: Escherichia coli transetta
Regarding B1, the binding result in the assay with ABI5-GST [1] is “binds”.

B2: MBP-SPL9 (natural protein, Arabidopsis thaliana, UniProt Q700W2 1-375, looked up)
chain: MEMGSNSGPGHGPGQAESGGSSTESSSFSGGLMFGQKIYFEDGGGGSGSSSSGGRSNRRVRGGGSGQSGQIPRCQVEGCGMDLTNAKGYYSRHRVCGVHSKTPKVTVAGIEQRFCQQCSRFHQLPEFDLEKRSCRRRLAGHNERRRKPQPASLSVLASRYGRIAPSLYENGDAGMNGSFLGNQEIGWPSSRTLDTRVMRRPVSSPSWQINPMNVFSQGSVGGGGTSFSSPEIMDTKLESYKGIGDSNCALSLLSNPHQPHDNNNNNNNNNNNNNNTWRASSGFGPMTVTMAQPPPAPSQHQYLNPPWVFKDNDNDMSPVLNLGRYTEPDNCQISSGTAMGEFELSDHHHQSRRQYMEDENTRAYDSSSHHTNWSL
notes: SPL9, Arabidopsis thaliana, At2g42200, full-length CDS in pMAL-c2X; source: Escherichia coli transetta, purified
With B2, the binding result in the assay with ABI5-GST [2] was “binds”.
